The numbers were not newly measured in PMC5567442, which cites them from elsewhere.

The target of the series is Kv1.3 (UniProt P22001).
UniProt P22001, sequence (P22001 whole entry): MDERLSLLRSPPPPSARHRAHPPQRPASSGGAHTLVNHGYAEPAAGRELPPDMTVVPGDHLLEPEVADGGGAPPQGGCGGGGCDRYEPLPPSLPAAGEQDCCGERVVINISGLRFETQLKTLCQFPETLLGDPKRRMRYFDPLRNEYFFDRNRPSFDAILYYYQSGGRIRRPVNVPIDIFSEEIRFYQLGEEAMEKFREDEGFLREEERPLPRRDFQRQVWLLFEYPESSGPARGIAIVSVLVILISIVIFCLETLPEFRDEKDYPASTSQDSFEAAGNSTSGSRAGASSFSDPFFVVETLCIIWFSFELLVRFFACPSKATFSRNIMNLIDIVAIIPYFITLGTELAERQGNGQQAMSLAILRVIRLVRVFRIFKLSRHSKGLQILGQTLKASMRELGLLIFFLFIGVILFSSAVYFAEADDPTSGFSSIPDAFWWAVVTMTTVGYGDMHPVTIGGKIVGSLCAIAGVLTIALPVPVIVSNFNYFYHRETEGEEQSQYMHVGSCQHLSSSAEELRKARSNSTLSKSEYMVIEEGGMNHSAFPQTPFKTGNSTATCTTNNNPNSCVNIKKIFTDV

As to Agitoxin-2 (from UniProt P46111), the Kd is 0.177 nM.

The term Kd denotes a measure of binding affinity in units of concentration.
